According to patent US20210032312A1 (Janssen / Centocor, published 2021):

What was measured:
human CD8A-Fc (in house) = target: T1, human CD8A-Fc (in house) (human, UniProt P01732 22-182, limits assumed); assay: SPR (ProteOn), captured hCD8A-Fc
T1 construct: captured by goat anti-human Fc on the ProteOn chip; also called hCD8A-Fc; recombinant human CD8 alpha; not shown: linker/tag and Fc of human IgG1

[1] = target: T2, cynomolgus monkey CD8 alpha on primary cynomolgus CD8+ T cells (cynomolgus monkey, UniProt P01732 23-235 (human entry)); assay: flow cytometry, cyno CD8+ T cells
T2 construct: also called Cyno CD8alpha; cyno CD8A
Description: (§1) Binding of the 190 ELISA hits to human and cynomologous monkey primary CD8 T cells was assessed by flow cytometry. The FN3 domain molecules were diluted to 2 μM and 0.2 μM in PBS and incubated with human or cynomologous monkey CD8+ T cells in 96-well format. After 1 hour at 4 C, the cells were washed once with PBS and then resuspended with an anti-FN3 domain antibody (PAB25) solution. Following this incubation, the cells were washed twice with PBS and a PE conjugated secondary antibody and a viability dye were added. Finally, cells were washed and resuspended in PBS for flow cytometric analysis using a BD Canto Instrument. Cells were gating on live cells and median fluorescence intensity of the bound Centyrins (PE channel) was calculated using Cytobank software.

[2] = target: T3, human CD8 alpha (CD8A) on primary human CD8+ T cells (human, UniProt P01732 22-235); assay: flow cytometry, human CD8+ T cells
T3 construct: whole, on cells; also called hCD8A
Description: as §1

T3 sequence (P01732 22-235): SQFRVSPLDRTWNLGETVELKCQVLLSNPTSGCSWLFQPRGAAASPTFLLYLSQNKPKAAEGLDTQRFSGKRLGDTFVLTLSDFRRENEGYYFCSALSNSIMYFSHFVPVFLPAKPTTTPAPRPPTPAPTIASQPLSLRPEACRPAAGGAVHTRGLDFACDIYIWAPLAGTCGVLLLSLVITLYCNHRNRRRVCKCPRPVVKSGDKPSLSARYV
T2 sequence (P01732 other isoform, or with tags, fused parts or gaps limits assumed): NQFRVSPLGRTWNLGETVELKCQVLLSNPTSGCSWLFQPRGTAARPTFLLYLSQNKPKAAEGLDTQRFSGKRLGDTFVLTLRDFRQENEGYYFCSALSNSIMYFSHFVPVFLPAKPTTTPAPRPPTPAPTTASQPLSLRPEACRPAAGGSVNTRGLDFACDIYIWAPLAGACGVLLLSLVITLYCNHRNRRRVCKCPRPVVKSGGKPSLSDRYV
T1 sequence (P01732 22-182 limits assumed): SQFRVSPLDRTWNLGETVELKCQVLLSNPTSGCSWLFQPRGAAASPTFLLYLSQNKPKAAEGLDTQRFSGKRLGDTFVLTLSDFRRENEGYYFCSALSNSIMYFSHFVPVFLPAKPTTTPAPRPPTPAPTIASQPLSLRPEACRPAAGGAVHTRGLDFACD

Binder | koff (human CD8A-Fc (in house)) [s⁻¹] | Cyno T-cell Binding 0.2 uM (MFI) [1] [MFI] | Cyno T-cell Binding 2 uM (MFI) [1] [MFI] | Human T-cell Binding 0.2 uM (MFI) [2] [MFI] | Human T-cell Binding 2 uM (MFI) [2] [MFI]
P283DR9P1364_E5 (designed binder, FN3 domain) LPAPKNLVVSRVTEDSARLSWTAPDAAFDSFWISYPEWPVPGEAIVLTVPGSERSYDLTGLKPGTEYWVIIQGVKGGKLSWPLSAIFTT | 0.000825 | 5090 | 55700 | 1270 | 17600
P283DR9P1364_E7 (designed binder, FN3 domain) LPAPKNLVVSRVTEDSARLSWTAPDAAFDSFNIAYPEWPVRGEAIVLTVPGSERSYDLTGLKPGTEYWVIIYGVKGGDRSNPLSAIFTT | 0.00243 | 2240 | 28700 | 442 | 5390
P283DR9P1364_H11 (designed binder, FN3 domain) LPAPKNLVVSRVTEDSARLSWTAPDAAFDSFDIAYPELPLGGEAIVLTVPGSERSYDLTGLKPGTEYFVIIWGVKGGDRSEPLSAIFTT | 0.000964 | 9460 | 60600 | 834 | 11500
P283DR9P1364_G9 (designed binder, FN3 domain) LPAPKNLVVSRVTEDSARLSWTAPDAAFDSFGIWYPEWPVGGEAIVLTVPGSERSYDLTGLKPGTEYWVNISGVKGGEYSFPLSAIFTT | 0.00779 | 2800 | 47100 | 401 | 9890
P283FR9P1366_A5 (designed binder, FN3 domain) LPAPKNLVVSRVTEDSARLSWTAPDAAFDSFWIAYPEWPTRGEAIVLTVPGSERSYDLTGLKPGTEYFVVIYGVKGGSPSPPLSAIFTT | 0.000585 | 10900 | 67800 | 3600 | 27600
P283DR9P1364_E9 (designed binder, FN3 domain) LPAPKNLVVSRVTEDSARLSWTAPDAAFDSFDIAYPEWPTKGEAIVLTVPGSERSYDLTGLKPGTEYFVVINGVKGGWRSFPLSAIFTT | 0.0019 | 2100 | 19700 | 548 | 4300
P283DR9P1364_H6 (designed binder, FN3 domain) LPAPKNLVVSRVTEDSARLSWTAPDAAFDSFIIAYPETPVRGEAIVLTVPGSERSYDLTGLKPGTEYFVIIIGVKGGQESFPLSAIFTT | 0.0023 | 418 | 6000 | 268 | 2620
P283DR9P1364_F2 (designed binder, FN3 domain) LPAPKNLVVSRVTEDSARLSWTAPDAAFDSFWIAYPEWPVPGEAIVLTVPGSERSYDLTGLKPGTEYFVIIQGVKGGFGSFPLSAIFTT | 0.000161 | 16900 | 91500 | 6250 | 39200
P283FR9P1366_A1 (designed binder, FN3 domain) LPAPKNLVVSRVTEDSARLSWTAPDAAFDSFWITYPEWPVPGEAIVLTVPGSERSYDLTGLKPGTEYAVFIWGVKGGDASEPLSAIFTT | 0.00226 | 1650 | 39400 | 516 | 8780
P283DR9P1364_H1 (designed binder, FN3 domain) LPAPKNLVVSRVTEDSARLSWTAPDAAFDSFQISYPEWPVHGEAIVLTVPGSERSYDLTGLKPGTEYWVIIWGVKGGRQSWPLSAIFTT | 0.000613 | 10600 | 54000 | 3030 | 29200
P283DR9P1364_G10 (designed binder, FN3 domain) LPAPKNLVVSRVTEDSARLSWTAPDAAFDSFSIAYPEWPGSGEAIVLTVPGSERSYDLTGLKPGTEYFVVIFGVKGGSQSWPLSAIFTT | 0.00253 | 769 | 10900 | 409 | 6290

The next lines start with the values.

koff (human CD8A-Fc (in house)) [s⁻¹] | Cyno T-cell Binding 0.2 uM (MFI) [1] [MFI] | Cyno T-cell Binding 2 uM (MFI) [1] [MFI] | Human T-cell Binding 0.2 uM (MFI) [2] [MFI] | Human T-cell Binding 2 uM (MFI) [2] [MFI] | Binder
0.000354 | 2580 | 41400 | 566 | 7520 | P283FR9P1366_D7 (designed binder, FN3 domain) LPAPKNLVVSRVTEDSARLSWTAPDAAFDSFSIAYPELPVKGEAIVLTVPGSERSYDLTGLKPGTEYFVVIWGVKGGTYSGPLSAIFTT
0.00176 | 8140 | 87600 | 1530 | 27800 | P283FR9P1366_D12 (designed binder, FN3 domain) LPAPKNLVVSRVTEDSARLSWTAPDAAFDSFDIAYPEWPLGGEAIVLTVPGSERSYDLTGLKPGTEYWVIILGVKGGDQSWPLSAIFTT
0.00207 | 1040 | 4630 | 407 | 1820 | P283FR9P1366_C3 (designed binder, FN3 domain) LPAPKNLVVSRVTEDSARLSWTAPDAAFDSFKIAYPEWPDGGEAIVLTVPGSERSYDLTGLKPGTEYFVIIYGVKGGILSPPLSAIFTT
0.00115 | 4670 | 51200 | 899 | 11400 | P283FR9P1366_B7 (designed binder, FN3 domain) LPAPKNLVVSRVTEDSARLSWTAPDAAFDSFWITYPEWPVNGEAIVLTVPGSERSYDLTGLKPGTEYWVVIWGVKGGVESPPLSAIFTT
0.00394 | 580 | 8810 | 252 | 1720 | P283FR9P1366_A9 (designed binder, FN3 domain) LPAPKNLVVSRVTEDSARLSWTAPDAAFDSFNIAYGEYPGPGEAIVLTVPGSERSYDLTGLKPGTEYWVPIWGVKGGELSEPLSAIFTT
0.00141 | 1470 | 14200 | 567 | 4590 | P283FR9P1366_E11 (designed binder, FN3 domain) LPAPKNLVVSRVTEDSARLSWTAPDAAFDSFDIAYPEWPVPGEAIVLTVPGSERSYDLTGLKPGTEYWVIIKGVKGGNISWPLSAIFTT
0.000536 | 10200 | 63400 | 3750 | 33800 | P283FR9P1366_C4 (designed binder, FN3 domain) LPAPKNLVVSRVTEDSARLSWTAPDAAFDSFNIAYPEWPVRGEAIVLTVPGSERSYDLTGLKPGTEYWVIIIGVKGGEDSWPLSAIFTT
0.000491 | 19300 | 89200 | 4320 | 41000 | P283FR9P1366_C2 (designed binder, FN3 domain) LPAPKNLVVSRVTEDSARLSWTAPDAAFDSFKISYPEWPPEGEAIVLTVPGSERSYDLTGLKPGTEYAVFIWCVKGGEHSWPLSAIFTT
0.00143 | 1680 | 26200 | 483 | 4540 | P283FR9P1366_C6 (designed binder, FN3 domain) LPAPKNLVVSRVTEDSARLSWTAPDAAFDSFSIAYPEWPVYGEAIVLTVPGSERSYDLTGLKPGTEYFVVIYGVKGGNYSDPLSAIFTT
0.000509 | 10400 | 79600 | 4550 | 32900 | P283FR9P1366_D6 (designed binder, FN3 domain) LPAPKNLVVSRVTEDSARLSWTAPDAAFDSFNIFYPELVFPGEAIVLTVPGSERSYDLTGLKPGTEYWVNISGVKGGEHSWPLSAIFTT
0.00134 | 2300 | 28200 | 413 | 3390 | P283FR9P1366_D8 (designed binder, FN3 domain) LPAPKNLVVSRVTEDSARLSWTAPDAAFDSFEIAYPEIPIAGEAIVLTVPGSERSYDLTGLKPGTEYFVIIYGVKGGDWSDPLSAIFTT
0.00104 | 4700 | 46400 | 720 | 6880 | P283FR9P1366_F5 (designed binder, FN3 domain) LPAPKNLVVSRVTEDSARLSWTAPDAAFDSFDIGYPEWPIKGEAIVLTVPGSERSYDLTGLKPGTEYWVIIWGVKGGDRSEPLSAIFTT
